Test results from patent publication US20250243471A1.

Assays:
[1] = molecular target: PhiV-1 gp8 portal protein (coliphage PhiV-1); assay: cryo-EM structure of the EcAvs4-portal complex
[2] = molecular target: EcAvs4 Q63A/K65A with internal TwinStrep tag between residues 114 and 115 (cryo-EM construct) (Escherichia coli NCTC11132); assay: cryo-EM; interface between adjacent STAND ATPase domains in the portal-bound EcAvs4 tetramer
[3] = molecular target: PhiV-1 gp19 large terminase subunit (coliphage PhiV-1); assay: cryo-EM structure of the SeAvs3-terminase complex
[4] = molecular target: SeAvs3 from Salmonella enterica NCTC13175 with C-terminal 6xHis tag (purified recombinant) (Salmonella enterica NCTC13175); assay: cryo-EM; interface between adjacent STAND ATPase domains in the terminase-bound SeAvs3 tetramer
[5] = molecular target: PhiV-1 gp19 terminase with StrepTag (gp19-StrepTag) (coliphage PhiV-1); assay: tandem affinity purification (Ni-NTA, Strep-Tactin), Superose 6 Increase peak, SDS-PAGE band intensity
[6] = molecular target: PhiV-1 gp19 large terminase subunit (coliphage PhiV-1); assay: cell-based or functional assay
[7] = molecular target: PhiV-1 gp8 portal protein (coliphage PhiV-1); assay: cell-based or functional assay

Substance: EcAvs4 Q63A/K65A with internal TwinStrep tag between residues 114 and 115 (cryo-EM construct) (receptor)
- buried solvent-accessible surface area [1]: 5800 Å2
- buried surface area [2]: 1230 Å^2

Substance: SeAvs3 from Salmonella enterica NCTC13175 with C-terminal 6xHis tag (purified recombinant) (receptor)
- buried solvent-accessible surface area [3]: > 3700 Å2
- buried surface area [4]: 436 Å^2
- ratio of SeAvs3 and gp19 in the complex peak (SeAvs3:gp19 ratio) [5]: 1

Substance: SeAvs3 from Salmonella enterica NCTC13175 expressed in E. coli (genetic assays) (receptor)
- Abundance relative to E. coli NovaBlue control (PhiV-1 fragment screen, deep sequencing of surviving plasmids) [6]: < 0.0001
- Abundance relative to E. coli NovaBlue control (PhiV-1 fragment screen, deep sequencing of surviving plasmids) [7]: 0.65

Substance: EcAvs4 from Escherichia coli NCTC11132 expressed in E. coli (genetic assays) (receptor)
- Abundance relative to E. coli NovaBlue control (PhiV-1 fragment screen, deep sequencing of surviving plasmids) [6]: 0.11
- Abundance relative to E. coli NovaBlue control (PhiV-1 fragment screen, deep sequencing of surviving plasmids) [7]: < 0.0001
